Data on 4 substances can be found in US20230151079.

The subject of the data set is Recombinant protein (SEQ ID NO: 1), modified from sculptin of the tick Amblyomma cajennense.
On to factor Xa, for which the “hydrolysis of recombinant protein by serine protease (SDS-PAGE, 6 h)” value (“hydrolysis of recombinant protein” below) is on record as “factor Xa also converted the recombinant protein in fragments”. As to plasmin, the “hydrolysis of recombinant protein” value was “strip of 20-kDa completely disappeared in recombinant protein incubated by plasm in and trypsin”.

With trypsin, the “hydrolysis of recombinant protein” value was “strip of 20-kDa completely disappeared in recombinant protein incubated by plasm in and trypsin”. For thrombin the value was “strip intensity of 20-kDa (corresponding to non-digested recombinant protein) decreased and strips of lower molecular weight appeared in recombinant protein incubated by thrombin”.
